{"source": "paper PMC6995517", "origin": "cited, not measured here", "biological_target": "transferrin receptor (TfR) (Homo sapiens) (UniProt P02786)", "sequence (P02786 89-760)": "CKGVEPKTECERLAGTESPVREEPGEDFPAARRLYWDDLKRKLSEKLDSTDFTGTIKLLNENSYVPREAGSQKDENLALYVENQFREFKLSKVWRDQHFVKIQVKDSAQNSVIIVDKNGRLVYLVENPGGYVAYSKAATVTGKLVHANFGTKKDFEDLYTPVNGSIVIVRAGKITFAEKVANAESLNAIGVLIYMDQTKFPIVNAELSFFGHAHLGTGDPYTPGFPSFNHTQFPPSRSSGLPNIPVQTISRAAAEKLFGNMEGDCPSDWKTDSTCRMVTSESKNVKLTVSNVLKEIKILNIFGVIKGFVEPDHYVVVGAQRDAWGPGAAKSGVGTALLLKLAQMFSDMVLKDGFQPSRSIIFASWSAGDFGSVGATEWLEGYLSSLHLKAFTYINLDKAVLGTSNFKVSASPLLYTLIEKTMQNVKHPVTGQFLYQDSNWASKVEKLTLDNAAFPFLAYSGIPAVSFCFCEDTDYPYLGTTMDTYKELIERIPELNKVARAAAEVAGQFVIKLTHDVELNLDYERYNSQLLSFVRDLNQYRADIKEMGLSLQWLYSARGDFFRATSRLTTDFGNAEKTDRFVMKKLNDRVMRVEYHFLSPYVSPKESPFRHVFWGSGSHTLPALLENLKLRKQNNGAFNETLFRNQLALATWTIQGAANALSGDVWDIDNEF"}
{"substance": "T7 peptide", "values": [{"measurement": "Kd", "result": 10, "unit": "nM"}]}
